# Test results taken from the Human Domainome abundance scans (Beltran et al. 2025).
# ± gives the uncertainty stated by the source.
# Experiment: abundance fitness (aPCA) (normalised: wild type 0, dead -1); higher = more abundant; growth selection in yeast, the domain comes from the species named
# Conditions: Homo sapiens
row,Substance,abundance fitness
1,"BAG family molecular chaperone regulator 3 Q33T, O95817",-0.583 ± 0.3
2,"SAFB-like transcription modulator R37Y, Q9NWH9",-0.722 ± 0.16
3,"SAFB-like transcription modulator E58M, Q9NWH9",0.008 ± 0.071
4,"SAFB-like transcription modulator L25Q, Q9NWH9",-0.181 ± 0.31
5,"SAFB-like transcription modulator D40M, Q9NWH9",-0.377 ± 0.067
6,"BAG family molecular chaperone regulator 3 D41T, O95817",-0.612 ± 0.23
7,"BAG family molecular chaperone regulator 3 D20R, O95817",-0.228 ± 0.085
8,"BAG family molecular chaperone regulator 3 V12Q, O95817",0.065 ± 0.16
9,"SAFB-like transcription modulator K20G, Q9NWH9",-0.638 ± 0.082
10,"BAG family molecular chaperone regulator 3 W49V, O95817",-0.665 ± 0.13
11,"SAFB-like transcription modulator G61A, Q9NWH9",-0.158 ± 0.049
12,"SAFB-like transcription modulator K21V, Q9NWH9",-0.375 ± 0.04
13,"BAG family molecular chaperone regulator 3 Q33H, O95817",-0.708 ± 0.49
14,"SAFB-like transcription modulator L68I, Q9NWH9",0.295 ± 0.089
15,"SAFB-like transcription modulator I22T, Q9NWH9",-0.542 ± 0.1
16,"SAFB-like transcription modulator L30D, Q9NWH9",-0.65 ± 0.083
17,"BAG family molecular chaperone regulator 3 R19V, O95817",-0.221 ± 0.073
18,"BAG family molecular chaperone regulator 3 P24N, O95817",0.135 ± 0.24
19,"SAFB-like transcription modulator K21H, Q9NWH9",-0.33 ± 0.091
20,"SAFB-like transcription modulator V47F, Q9NWH9",-0.447 ± 0.044
21,"SAFB-like transcription modulator K21C, Q9NWH9",-0.203 ± 0.058
22,"SAFB-like transcription modulator T42Q, Q9NWH9",0.127 ± 0.1
23,"BAG family molecular chaperone regulator 3 Q11T, O95817",0.18 ± 0.49
24,"SAFB-like transcription modulator L68F, Q9NWH9",-0.164 ± 0.09

row,Substance,abundance fitness
1,"BAG family molecular chaperone regulator 3 W49F, O95817",-0.227 ± 0.42
2,"BAG family molecular chaperone regulator 3 G58L, O95817",-0.211 ± 0.2
3,"SAFB-like transcription modulator G61Y, Q9NWH9",-0.259 ± 0.082
4,"BAG family molecular chaperone regulator 3 A13C, O95817",-0.603 ± 0.46
5,"SAFB-like transcription modulator R51D, Q9NWH9",-0.783 ± 0.4
6,"SAFB-like transcription modulator L34W, Q9NWH9",-1.01 ± 0.057
7,"BAG family molecular chaperone regulator 3 I28S, O95817",0.183 ± 0.083
8,"SAFB-like transcription modulator G19V, Q9NWH9",0.053 ± 0.072
9,"BAG family molecular chaperone regulator 3 P37I, O95817",0.485 ± 0.08
10,"SAFB-like transcription modulator K53I, Q9NWH9",-0.369 ± 0.08
11,"SAFB-like transcription modulator R51W, Q9NWH9",-1.1 ± 0.085
12,"BAG family molecular chaperone regulator 3 P37W, O95817",0.115 ± 0.086
13,"SAFB-like transcription modulator L34R, Q9NWH9",-0.969 ± 0.069
14,"SAFB-like transcription modulator I28A, Q9NWH9",0.055 ± 0.1
15,"BAG family molecular chaperone regulator 3 T34I, O95817",0.028 ± 0.2
16,"BAG family molecular chaperone regulator 3 P23W, O95817",-0.692 ± 0.095
17,"BAG family molecular chaperone regulator 3 D31L, O95817",-0.732 ± 0.1
18,"SAFB-like transcription modulator E33D, Q9NWH9",-0.916 ± 0.16
19,"BAG family molecular chaperone regulator 3 K29H, O95817",-0.686 ± 0.16
20,"BAG family molecular chaperone regulator 3 W26P, O95817",-0.892 ± 0.39
21,"SAFB-like transcription modulator T46E, Q9NWH9",0.004 ± 0.068
22,"SAFB-like transcription modulator I22H, Q9NWH9",-0.471 ± 0.12
23,"SAFB-like transcription modulator T46W, Q9NWH9",-0.129 ± 0.038
24,"SAFB-like transcription modulator R26P, Q9NWH9",-0.126 ± 0.14

row,Substance,abundance fitness
1,"SAFB-like transcription modulator V27C, Q9NWH9",-0.067 ± 0.094
2,"BAG family molecular chaperone regulator 3 S44C, O95817",-0.688 ± 0.31
3,"SAFB-like transcription modulator E57G, Q9NWH9",-0.204 ± 0.044
4,"BAG family molecular chaperone regulator 3 F39A, O95817",-0.89 ± 0.18
5,"SAFB-like transcription modulator N65E, Q9NWH9",-0.165 ± 0.069
6,"BAG family molecular chaperone regulator 3 I30H, O95817",-0.114 ± 0.074
7,"SAFB-like transcription modulator I66A, Q9NWH9",-0.552 ± 0.15
8,"BAG family molecular chaperone regulator 3 G15C, O95817",0.649 ± 0.079
9,"BAG family molecular chaperone regulator 3 T34L, O95817",-0.568 ± 0.084
10,"BAG family molecular chaperone regulator 3 P21Q, O95817",0.192 ± 0.063
11,"SAFB-like transcription modulator Q54L, Q9NWH9",0 ± 0.072
12,"BAG family molecular chaperone regulator 3 V12M, O95817",-0.393 ± 0.4
13,"BAG family molecular chaperone regulator 3 K29M, O95817",-0.23 ± 0.21
14,"BAG family molecular chaperone regulator 3 N16A, O95817",0.423 ± 0.079
15,"BAG family molecular chaperone regulator 3 P37L, O95817",0.128 ± 0.067
16,"BAG family molecular chaperone regulator 3 W36R, O95817",0.623 ± 0.3
17,"BAG family molecular chaperone regulator 3 I30A, O95817",-0.011 ± 0.11
18,"BAG family molecular chaperone regulator 3 W36S, O95817",1.56 ± 0.45
19,"SAFB-like transcription modulator N38V, Q9NWH9",-0.688 ± 0.052
20,"BAG family molecular chaperone regulator 3 E27S, O95817",-0.596 ± 0.14
21,"BAG family molecular chaperone regulator 3 Q33I, O95817",-0.499 ± 0.35
22,"BAG family molecular chaperone regulator 3 N50T, O95817",-0.435 ± 0.11
